Laboratory results reported in the supplement of paper PMC10567573.

B1: RSAD1 (parent)
chain: YCNFNKYIPRRLEEAAMQKCLVTE

Variants of: B1
Experiment: protein stability index of a GFP-peptide fusion (GPS, HEK-293T) (PSI 1-6); higher = more stable
Conditions: c terminus: a fixed tail appended
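Also: lentivirally expressed fusions sorted by FACS into six bins by GFP to DsRed ratio, PSI derived from sequencing read proportions per bin multiplied by bin number.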

Protein stability index of substitutions, site by site:
A16: V 2.98, I 3.03, Q 2.23, C 3.34, H 3.97, F 1.74, L 1.41, K 3.53, T 2.39, W 1.79, D 2.54, N 3.66, S 2.56, Y 2.16, M 1.57, R 2.39
K19: P 2.76, E 2.71, Y 2.31, N 2.37, Q 2.96, C 2.08, L 3.06, W 2.37, M 4.09, G 2.12, D 1.68, T 2.01, H 1.7, V 1.48, I 2.25, S 2.41
L12: W 4.96, T 2, K 2.42, M 2.83, Y 3.24, D 2.19, P 2.95, N 3.28, Q 4, S 2.45, H 2.52, I 2.98, E 2.46, V 2.74, R 2.41, F 2.15, G 2.96
L21: C 2.15, A 2.09, M 1.42, I 1.79, N 2.19, K 2.67, E 2.41, G 2.03, H 2.69, D 2.17, F 2.97
E14: S 2.5, D 2.71, I 2.32, Q 2.85, A 3.07, L 2.34, N 3.14, Y 1.33, F 2.31, T 2.09, C 2.27, V 3.05, W 1.96, H 1.65, P 2.92, K 1.58, G 3, R 2.33, M 3.14
Q18: K 2.15, S 2.02, H 1.88, V 3.15, R 2.03, T 1.89, I 2.76, N 3.44, D 1.84, G 1.76, A 1.75, Y 2.88, C 2.41, P 1.96, M 3.17, F 2.34, L 1.71
C20: W 2.77, P 1.95, L 2.91, H 2.31, A 2.87, I 3.05, K 2.11, N 2.44, S 2.1, V 1.89, M 2.27, Y 4.07, Q 2, D 2.56, G 2.9, F 2.7, T 1.89, E 2.02, R 2.55
A15: F 2.02, V 3.4, T 3.34, K 1.69, E 1.84, I 1.56, Q 2.24, Y 2.61, W 1.04, M 2.14, D 2.55, N 2.09, C 1.83, P 2.85, H 3.35, L 2.23
E13: Q 1.93, R 2.19, D 3.69, P 3.17, A 2.63, Y 1.88, K 1.82, T 2.55, S 1.46, C 1.99, F 2.34, W 2.49, L 2.16, I 1.66, N 3.29, H 3.29, G 2.11, M 2.56
M17: Q 2.57, K 2.85, F 1.67, V 2, L 1.96, T 3.45, D 3.71, A 1.98, P 1.92, I 2.82, W 2.1, E 2.44, C 1.72, G 1.99, N 2.11, H 3.23, Y 2.85, R 1.71
